This note sets out measurements from patent publication US10450368 (DUKE UNIVERSITY, dated 2019).

Assay [1] addresses T1, SSB (UniProt P05455 1-408).
T1 sequence: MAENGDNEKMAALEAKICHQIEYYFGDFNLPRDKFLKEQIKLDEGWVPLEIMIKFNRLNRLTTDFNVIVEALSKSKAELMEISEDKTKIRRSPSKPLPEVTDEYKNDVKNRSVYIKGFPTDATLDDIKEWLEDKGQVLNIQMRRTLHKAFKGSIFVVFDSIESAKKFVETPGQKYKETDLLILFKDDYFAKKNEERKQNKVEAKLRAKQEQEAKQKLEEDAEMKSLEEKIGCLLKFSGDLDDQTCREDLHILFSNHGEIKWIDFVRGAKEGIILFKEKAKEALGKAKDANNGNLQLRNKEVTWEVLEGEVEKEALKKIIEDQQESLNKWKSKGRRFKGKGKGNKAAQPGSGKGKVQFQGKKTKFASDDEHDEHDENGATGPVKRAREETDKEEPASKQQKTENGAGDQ
The experiment in a line: AtheNA, Ab 6.25 ug/ml.

The target of another assay is T2, Jo-1 (UniProt P12081 1-509).
T2 sequence: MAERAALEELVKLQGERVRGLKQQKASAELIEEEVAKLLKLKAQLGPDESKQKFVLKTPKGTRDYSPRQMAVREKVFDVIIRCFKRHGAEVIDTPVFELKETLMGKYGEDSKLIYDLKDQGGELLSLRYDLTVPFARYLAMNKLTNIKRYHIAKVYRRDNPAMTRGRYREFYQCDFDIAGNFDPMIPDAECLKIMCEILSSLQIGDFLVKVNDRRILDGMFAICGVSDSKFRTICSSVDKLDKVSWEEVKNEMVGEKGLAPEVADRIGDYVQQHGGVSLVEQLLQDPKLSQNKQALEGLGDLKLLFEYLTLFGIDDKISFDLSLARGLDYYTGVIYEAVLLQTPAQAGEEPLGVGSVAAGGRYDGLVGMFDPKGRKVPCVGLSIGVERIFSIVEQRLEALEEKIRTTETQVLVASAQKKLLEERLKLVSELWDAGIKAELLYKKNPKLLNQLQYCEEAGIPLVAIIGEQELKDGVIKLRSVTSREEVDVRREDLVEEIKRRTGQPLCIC
The experiment in a line: AtheNA, Ab 6.25 ug/ml.

A further assay deals with T3, Sm (Smith antigen).
T3 construct: Protein complex
The experiment in a line: AtheNA, Ab 6.25 ug/ml.

Assay [2] addresses T4, Histones.
T4 construct: Mixture of proteins
The experiment in a line: AtheNA, Ab 6.25 ug/ml.

The target of another assay is T5, Centromere B (UniProt P07199 1-599).
T5 construct: also called Cent B
T5 sequence: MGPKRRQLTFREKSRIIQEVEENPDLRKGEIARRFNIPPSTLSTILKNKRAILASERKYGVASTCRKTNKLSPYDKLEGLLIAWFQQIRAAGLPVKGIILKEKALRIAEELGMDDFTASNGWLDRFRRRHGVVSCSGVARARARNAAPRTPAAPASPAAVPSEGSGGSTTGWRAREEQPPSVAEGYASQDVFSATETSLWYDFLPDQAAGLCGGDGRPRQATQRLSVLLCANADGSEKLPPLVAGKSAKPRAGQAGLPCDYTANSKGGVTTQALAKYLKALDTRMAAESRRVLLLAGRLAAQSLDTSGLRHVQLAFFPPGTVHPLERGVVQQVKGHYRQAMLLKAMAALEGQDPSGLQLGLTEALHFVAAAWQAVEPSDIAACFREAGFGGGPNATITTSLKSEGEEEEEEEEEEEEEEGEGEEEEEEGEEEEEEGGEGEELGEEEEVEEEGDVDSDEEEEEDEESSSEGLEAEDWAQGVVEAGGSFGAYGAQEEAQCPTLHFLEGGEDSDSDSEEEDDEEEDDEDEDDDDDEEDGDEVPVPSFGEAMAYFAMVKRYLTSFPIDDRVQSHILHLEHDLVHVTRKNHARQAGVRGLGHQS
The experiment in a line: AtheNA, Ab 6.25 ug/ml.

The target of assay [3] is T6, RNP (ribonucleoprotein).
T6 construct: Protein-RNA complex
The experiment in a line: AtheNA, Ab 6.25 ug/ml.

The target in the next assay is T7, Scl-70 (UniProt P11387 1-765).
T7 sequence: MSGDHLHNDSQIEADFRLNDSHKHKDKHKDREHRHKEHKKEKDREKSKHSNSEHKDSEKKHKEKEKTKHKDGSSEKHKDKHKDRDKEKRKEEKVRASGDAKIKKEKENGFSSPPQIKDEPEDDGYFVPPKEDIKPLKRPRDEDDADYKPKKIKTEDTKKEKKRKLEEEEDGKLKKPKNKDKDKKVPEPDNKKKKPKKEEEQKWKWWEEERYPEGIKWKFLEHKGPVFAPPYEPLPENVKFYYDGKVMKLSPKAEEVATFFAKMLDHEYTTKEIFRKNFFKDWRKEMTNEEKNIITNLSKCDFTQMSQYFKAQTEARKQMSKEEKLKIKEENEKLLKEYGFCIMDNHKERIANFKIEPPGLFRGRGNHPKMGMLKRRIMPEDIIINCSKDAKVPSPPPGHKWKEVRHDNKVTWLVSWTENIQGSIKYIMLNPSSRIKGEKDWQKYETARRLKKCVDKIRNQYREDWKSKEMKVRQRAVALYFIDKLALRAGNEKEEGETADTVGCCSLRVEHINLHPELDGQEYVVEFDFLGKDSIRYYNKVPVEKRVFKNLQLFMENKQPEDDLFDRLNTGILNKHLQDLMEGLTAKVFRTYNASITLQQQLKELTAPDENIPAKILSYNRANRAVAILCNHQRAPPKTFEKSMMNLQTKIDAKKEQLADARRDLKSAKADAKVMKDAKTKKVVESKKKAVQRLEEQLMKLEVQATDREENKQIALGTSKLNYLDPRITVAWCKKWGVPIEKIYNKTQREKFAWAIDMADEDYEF
The experiment in a line: AtheNA, Ab 6.25 ug/ml.

Another assay has as its target T8, SSA.
T8 construct: also called SSA (Ro)
The experiment in a line: AtheNA, Ab 6.25 ug/ml.

In assay [4] the target is T1, SSB. The experiment in a line: AtheNA, Ab 12.5 ug/ml.
From the text: (§1) AtheNA Multi-Lyte ANA Plus Test System is one such assay. This is luminex-based assay, which is also used to screen patient sera.
The target in assay [5] is T4, Histones. The experiment in a line: AtheNA, Ab 12.5 ug/ml.
From the text: as §1
Assay [6] deals with T6, RNP (ribonucleoprotein). The experiment in a line: AtheNA, Ab 12.5 ug/ml.
From the text: as §1
The target in the next assay is T9, CH505.TF mutant gp120 M6 (HIV-1).
T9 construct: domain: gp120
The experiment in a line: direct-binding ELISA (OD450), panel 'CH505.TF gp120 M6'. (In general: ELISA stands for enzyme-linked immunosorbent assay.)

B1: CH557 (antibody, V domains shown)
VH: QVRLAQYGGGVKRLGATMTLSCVASGYTFNDYYIHWVRQAPGQGFELLGYIDPANGRPDYAGALRERLSFYRDKSMETLYMDLRSLRYDDTAMYYCVRNVGTAGSLLHYDHWGSGSPVIVSS
VL: EIVLTQSPATLSASPGERVTLTCRASRSVRNNVAWYQHKGGQSPRLLIYDASTRAAGVPARFSGSASGTEFTLAISNLESEDFTVYFCLQYNNWWTFGQGTRVDIK
notes: also called CH235.12; CH557_4A/293i
In the case of B1, the AtheNA signal is 5 relative luminescence units with SSB [1]; 5 relative luminescence units with Jo-1; 4 relative luminescence units with Sm (Smith antigen); 4 relative luminescence units in the assay with Histones [2]; 11 relative luminescence units in the assay with Centromere B; 4 relative luminescence units with RNP (ribonucleoprotein) [3]. Further, the AtheNA signal in the assay with Scl-70 was 3 relative luminescence units; in the assay with SSA, 4 relative luminescence units.

B2: CH493 (antibody, V domains shown)
VH: QVRLLQYGGGVKRPGASMTISCVASGYNFNDYYIHWVRQAPGQGLELMGWIDPSGGRTDYAGAFGDRVSMYRDKSMNTLYMDLRSLRSGDTAMYYCVRNVGTAGSLLHYDHWGLGVMVTVSS
VL: EIVLTQSPATLSVSPGERVTLSCRASQSVRNNLAWYRQKRGQAPRLLIYGASTRATGIPARFSGSGSGTEFTLTISSMQSEDFAVYYCQQYNNWWTFGQGTKVEIK
notes: also called CH235.9; DH493
Regarding B2, the AtheNA signal in the assay with SSB [4] stood at 22; with Histones [5], 200; in the assay with RNP (ribonucleoprotein) [6], 49. The “EC50 (read off the curve)” value in the assay with CH505.TF mutant gp120 M6 was approximately 0.5 µg/mL.

As a reminder, the EC50 (read off the curve) is the concentration giving half of the maximal effect.
